Reference: paper PMC7815104

Molecular target: recombinant soluble canine IL-10 receptor alpha chain (R1), extra-cytoplasmic domain (canine)
Experiment: SPR; rcasIL-10R1 covalently immobilised (EDC/NHS) on a CM5 chip to 1000 RU, Biacore T100; cytokines in PBS with 0.05% Tween 20 applied for 2 min 30 s; each sample evaluated twice, mean ± SD of RU

- RU at 31.2 ng/mL: 211 RU
- RU at 125 ng/mL (plateau): 1720 RU
- binding equilibrium constant (EC80): 51.4 nM
Substance: recombinant canine IL-10 (from UniProt P48411 20-181) (ligand)
